According to the Human Domainome abundance scans (Beltran et al. 2025):
± gives the uncertainty stated by the source.

B1: Double-stranded RNA-specific adenosine deaminase, residues 296 to 358; numbered along this chain, P55265 (parent)
chain: MAEIKEKICDYLFNVSDSSALNLAKNIGLTKARDINAVLIDMERQGDVYRQGTTPPIWHLTDK

Variants of: B1
Experiment: abundance fitness (aPCA) (normalised: wild type 0, dead -1); higher = more abundant; growth selection in yeast, the domain comes from the species named
Conditions: Homo sapiens

**Q.** Which abundance fitness does the source give for MAEIKEKICDYLFNVSDSSALNLAKNIGLTKARDINAVLIDMEQQGDVYRQGTTPPIWHLTDK [R44Q] here?
**A.** 0.037 ± 0.061

**Q.** With MAEIKEKICDYLFNVSDSSALNLAKNIGLTKARDINAVLVDMERQGDVYRQGTTPPIWHLTDK [I40V] as the variant, how does the abundance fitness read?
**A.** -0.049 ± 0.054

**Q.** For MAEIKEKICDYLFNVSDSSALNLAKNIGLTKARDINAVLQDMERQGDVYRQGTTPPIWHLTDK [I40Q], which abundance fitness is on record?
**A.** 0.159 ± 0.068

**Q.** With MAEIKEKICDYLFNVSDSSALNLAKNIGLTKARDINAVLSDMERQGDVYRQGTTPPIWHLTDK [I40S] as the variant, how does the abundance fitness read?
**A.** 0.117 ± 0.041

**Q.** Which abundance fitness does the source give for MAEQKEKICDYLFNVSDSSALNLAKNIGLTKARDINAVLIDMERQGDVYRQGTTPPIWHLTDK [I4Q] here?
**A.** -0.327 ± 0.068

**Q.** With MAENKEKICDYLFNVSDSSALNLAKNIGLTKARDINAVLIDMERQGDVYRQGTTPPIWHLTDK [I4N] as the variant, how does the abundance fitness read?
**A.** -0.327 ± 0.059

**Q.** With MAEIKEKICMYLFNVSDSSALNLAKNIGLTKARDINAVLIDMERQGDVYRQGTTPPIWHLTDK [D10M] as the variant, how does the abundance fitness read?
**A.** -0.44 ± 0.074

**Q.** For MAEIKEKICDYLFNVSDSSALNLAKNMGLTKARDINAVLIDMERQGDVYRQGTTPPIWHLTDK [I27M], which abundance fitness is on record?
**A.** -0.359 ± 0.06

**Q.** For MAEIKEKICDYLFNVSDSSALNLAKNHGLTKARDINAVLIDMERQGDVYRQGTTPPIWHLTDK [I27H], which abundance fitness is on record?
**A.** -0.548 ± 0.11

**Q.** Which abundance fitness does the source give for MAEIKEKICDYLFNVSDSSALNLAKNNGLTKARDINAVLIDMERQGDVYRQGTTPPIWHLTDK [I27N] here?
**A.** -0.538 ± 0.11

**Q.** For MAEIKEKICDYLFNVSDSSALNLAKNIGLTKARDINATLIDMERQGDVYRQGTTPPIWHLTDK [V38T], which abundance fitness is on record?
**A.** -0.11 ± 0.057

**Q.** With MAEIKEKICDYLFNVSDSSALNLAKNIGLTKARDINAVLIDMERQGDVYRQGTTPPIWHLTRK [D62R] as the variant, how does the abundance fitness read?
**A.** -0.167 ± 0.052

**Q.** Which abundance fitness does the source give for MAEIKEKICDYLFNVSDSSALNLAKNIGLTKARDINAVLIDMERQGDVYRQGTTPPIWHLTQK [D62Q] here?
**A.** 0.017 ± 0.088

**Q.** With MAVIKEKICDYLFNVSDSSALNLAKNIGLTKARDINAVLIDMERQGDVYRQGTTPPIWHLTDK [E3V] as the variant, how does the abundance fitness read?
**A.** -0.471 ± 0.081

**Q.** Which abundance fitness does the source give for MAEIKEKICDYLFNVSDSSALNLAKNIGLTKARDINAVLIDMERQGYVYRQGTTPPIWHLTDK [D47Y] here?
**A.** -0.068 ± 0.06

**Q.** Which abundance fitness does the source give for MAEIKEKICDYLFNVSDSSALNLAKNIGLTKASDINAVLIDMERQGDVYRQGTTPPIWHLTDK [R33S] here?
**A.** 0.342 ± 0.048

**Q.** Which abundance fitness does the source give for MAEIKEKICDYLFNVSDSSALNLAKNIGLTKARDINAVLIDMERQGDVYNQGTTPPIWHLTDK [R50N] here?
**A.** -0.379 ± 0.073

**Q.** For MAEIKECICDYLFNVSDSSALNLAKNIGLTKARDINAVLIDMERQGDVYRQGTTPPIWHLTDK [K7C], which abundance fitness is on record?
**A.** -1.01 ± 0.12

**Q.** For MAEIKEFICDYLFNVSDSSALNLAKNIGLTKARDINAVLIDMERQGDVYRQGTTPPIWHLTDK [K7F], which abundance fitness is on record?
**A.** -0.543 ± 0.088

**Q.** With MAEIKEKICDYLFNVSDSSALNLAKNIGRTKARDINAVLIDMERQGDVYRQGTTPPIWHLTDK [L29R] as the variant, how does the abundance fitness read?
**A.** -0.356 ± 0.076

**Q.** Which abundance fitness does the source give for MAEIKEKICDYLFNVSDSSALNLAKNIGSTKARDINAVLIDMERQGDVYRQGTTPPIWHLTDK [L29S] here?
**A.** -0.17 ± 0.045

**Q.** Which abundance fitness does the source give for MAEIKEKICDYLFNVSDSSALNLAKNIGLTKARDINGVLIDMERQGDVYRQGTTPPIWHLTDK [A37G] here?
**A.** -0.332 ± 0.043

**Q.** For MAEIKEKICDYLFNVSDSSALNLAKNIGLTKARDINAVKIDMERQGDVYRQGTTPPIWHLTDK [L39K], which abundance fitness is on record?
**A.** -0.096 ± 0.059

**Q.** For MAEIKEKICDYLFNVSDSSALNLAKNIGLTKARDINAVLIDMERQGDQYRQGTTPPIWHLTDK [V48Q], which abundance fitness is on record?
**A.** -0.743 ± 0.11

**Q.** Which abundance fitness does the source give for MAEIKEKICDYLFNVSDSSALNLAKNIGLTKARDINAVLIDMERQGDFYRQGTTPPIWHLTDK [V48F] here?
**A.** -0.927 ± 0.17

**Q.** Which abundance fitness does the source give for MAEIKEKICDYLFNVSDSSALNLAKNIGLTKARDINAVLIDMERQGDCYRQGTTPPIWHLTDK [V48C] here?
**A.** -0.389 ± 0.082

**Q.** With MAEIKEKICDYLFNVSDSSALNLAKNIGLTKARDINAVLIDMERQGDVYRQGTTPPIWHLHDK [T61H] as the variant, how does the abundance fitness read?
**A.** -0.344 ± 0.26

**Q.** With MAEIKEKICDYLFNVSDSSALNLAKNIGLTCARDINAVLIDMERQGDVYRQGTTPPIWHLTDK [K31C] as the variant, how does the abundance fitness read?
**A.** 0.237 ± 0.079

**Q.** For MAEIKEKICDYLFNVSDSSWLNLAKNIGLTKARDINAVLIDMERQGDVYRQGTTPPIWHLTDK [A20W], which abundance fitness is on record?
**A.** -0.627 ± 0.076

**Q.** With MAEIKEKICDYLFNVSDSSNLNLAKNIGLTKARDINAVLIDMERQGDVYRQGTTPPIWHLTDK [A20N] as the variant, how does the abundance fitness read?
**A.** -0.481 ± 0.19

**Q.** For MAEIKEKICDYLFNVSDSSALWLAKNIGLTKARDINAVLIDMERQGDVYRQGTTPPIWHLTDK [N22W], which abundance fitness is on record?
**A.** -0.609 ± 0.11

**Q.** Which abundance fitness does the source give for MAEIKEKICDYLFNVSDSSALHLAKNIGLTKARDINAVLIDMERQGDVYRQGTTPPIWHLTDK [N22H] here?
**A.** -0.117 ± 0.17

**Q.** Which abundance fitness does the source give for MAEIKEKICDYLFNVSDSSALDLAKNIGLTKARDINAVLIDMERQGDVYRQGTTPPIWHLTDK [N22D] here?
**A.** 0.004 ± 0.093

**Q.** For KAEIKEKICDYLFNVSDSSALNLAKNIGLTKARDINAVLIDMERQGDVYRQGTTPPIWHLTDK [M1K], which abundance fitness is on record?
**A.** 0.181 ± 0.073

**Q.** With MAEIKEKICDYLFNVCDSSALNLAKNIGLTKARDINAVLIDMERQGDVYRQGTTPPIWHLTDK [S16C] as the variant, how does the abundance fitness read?
**A.** -0.25 ± 0.095

**Q.** With MAEIKEKICDYLFNVQDSSALNLAKNIGLTKARDINAVLIDMERQGDVYRQGTTPPIWHLTDK [S16Q] as the variant, how does the abundance fitness read?
**A.** -0.124 ± 0.063

**Q.** For MAEIKEKICDYLFNVSDDSALNLAKNIGLTKARDINAVLIDMERQGDVYRQGTTPPIWHLTDK [S18D], which abundance fitness is on record?
**A.** -0.461 ± 0.085

**Q.** Which abundance fitness does the source give for MAEIKEKICDYLFNVSDWSALNLAKNIGLTKARDINAVLIDMERQGDVYRQGTTPPIWHLTDK [S18W] here?
**A.** -0.535 ± 0.079

**Q.** With MAEIKEKICDYLFNVSDSSAWNLAKNIGLTKARDINAVLIDMERQGDVYRQGTTPPIWHLTDK [L21W] as the variant, how does the abundance fitness read?
**A.** -0.071 ± 0.067

**Q.** Which abundance fitness does the source give for MAEIKEKICDYLFNVSDSSAVNLAKNIGLTKARDINAVLIDMERQGDVYRQGTTPPIWHLTDK [L21V] here?
**A.** -0.015 ± 0.052

**Q.** With MAEIKEKICDYLFNVSDSSAGNLAKNIGLTKARDINAVLIDMERQGDVYRQGTTPPIWHLTDK [L21G] as the variant, how does the abundance fitness read?
**A.** 0.009 ± 0.052

**Q.** Which abundance fitness does the source give for MAEIKEKICDYLFNVSDSSARNLAKNIGLTKARDINAVLIDMERQGDVYRQGTTPPIWHLTDK [L21R] here?
**A.** -0.02 ± 0.046
